± gives the standard deviation of the averaged measurements.
Assay: total protein half-life in vivo (active degradation + dilution); higher = more stable protein
[1] = E. coli NCM3722 delta-clpP delta-lon delta-hslV, growth: N-lim chemostat, doubling time 6 h
[2] = E. coli NCM3722 delta-clpP, growth: N-lim chemostat, doubling time 6 h
[3] = E. coli NCM3722 delta-hslV, growth: N-lim chemostat, doubling time 6 h
[4] = E. coli NCM3722 delta-smpB, growth: N-lim chemostat, doubling time 6 h
[5] = wild type E. coli NCM3722, growth: C-lim chemostat, doubling time 3 h
[6] = wild type E. coli NCM3722, growth: C-lim chemostat, doubling time 6 h
[7] = wild type E. coli NCM3722, growth: C-lim chemostat, doubling time 12 h
[8] = wild type E. coli NCM3722, growth: N-lim chemostat, doubling time 12 h
[9] = wild type E. coli NCM3722, growth: P-lim chemostat, doubling time 6 h
[10] = wild type E. coli NCM3722, growth: P-lim chemostat, doubling time 12 h
[11] = E. coli NCM3722 delta-lon, growth: N-lim chemostat, doubling time 6 h
[12] = wild type E. coli NCM3722, growth: N-lim chemostat, doubling time 6 h

Sequence	total protein half-life in vivo [1] [h]	total protein half-life in vivo [2] [h]	total protein half-life in vivo [3] [h]	total protein half-life in vivo [4] [h]	total protein half-life in vivo [5] [h]	total protein half-life in vivo [6] [h]	total protein half-life in vivo [7] [h]	total protein half-life in vivo [8] [h]	total protein half-life in vivo [9] [h]	total protein half-life in vivo [10] [h]	total protein half-life in vivo [11] [h]	total protein half-life in vivo [12] [h]
MSILTRWLLIPPVNARLIGRYRDYRRHGASAFSATLGCFWMILAWIFIPLEHPRWQRIRAEHKNLYPHINASRPRPLDPVRYLIQTCWLLIGASRKETPKPRRRAFSGLQNIRGRYHQWMNELPERVSHKTQHLDEKKELGHLSAGARRLILGIIVTFSLILALICVTQPFNPLAQFIFLMLLWGVALIVRRMPGRFSALMLIVLSLTVSCRYIWWRYTSTLNWDDPVSLVCGLILLFAETYAWIVLVLGYFQVVWPLNRQPVPLPKDMSLWPSVDIFVPTYNEDLNVVKNTIYASLGIDWPKDKLNIWILDDGGREEFRQFAQNVGVKYIARTTHEHAKAGNINNALKYAKGEFVSIFDCDHVPTRSFLQMTMGWFLKEKQLAMMQTPHHFFSPDPFERNLGRFRKTPNEGTLFYGLVQDGNDMWDATFFCGSCAVIRRKPLDEIGGIAVETVTEDAHTSLRLHRRGYTSAYMRIPQAAGLATESLSAHIGQRIRWARGMVQIFRLDNPLTGKGLKFAQRLCYVNAMFHFLSGIPRLIFLTAPLAFLLLHAYIIYAPALMIALFVLPHMIHASLTNSKIQGKYRHSFWSEIYETVLAWYIAPPTLVALINPHKGKFNVTAKGGLVEEEYVDWVISRPYIFLVLLNLVGVAVGIWRYFYGPPTEMLTVVVSMVWVFYNLIVLGGAVAVSVESKQVRRSHRVEMTMPAAIAREDGHLFSCTVQDFSDGGLGIKINGQAQILEGQKVNLLLKRGQQEYVFPTQVARVMGNEVGLKLMPLTTQQHIDFVQCTFARADTWALWQDSYPEDKPLESLLDILKLGFRGYRHLAEFAPSSVKGIFRVLTSLVSWVVSFIPRRPERSETAQPSDQALAQQ	3.59	3.59 ± 0.068	3.23 ± 0.15	3.25 ± 0.049	2.31 ± 0.24	3.01 ± 0.81	4.36	8.41	3.59 ± 0.75	6.3 ± 0.43		
MSIRIIPQDELGSSEKRTADMIPPLLFPRLKNLYNRRAERLRELAENNPLGDYLRFAALIAHAQEVVLYDHPLEMDLTARIKEASAQGKPPLDIHVLPRDKHWQKLLMALIAELKPEMSGPALAVIENLEKASTQELEDMASALFASDFSSVSSDKAPFIWAALSLYWAQMANLIPGKARAEYGEQRQYCPVCGSMPVSSMVQIGTTQGLRYLHCNLCETEWHVVRVKCSNCEQSGKLHYWSLDDEQAAIKAESCDDCDTYLKILYQEKDPKIEAVADDLASLVLDARMEQEGYARSSINPFLFPGEGE		4.49 ± 0.13	3.54 ± 0.26	2.78 ± 0.7	1.81 ± 0.24	3.48 ± 0.15	6.07 ± 2.6	4.72 ± 0.75	4.06 ± 0.14	7.84 ± 0.28	4.36 ± 1.1	3.56 ± 0.28
MSIVMQLQDVAESTRLGPLSGEVRAGEILHLVGPNGAGKSTLLARMAGMTSGKGSIQFAGQPLEAWSATKLALHRAYLSQQQTPPFATPVWHYLTLHQHDKTRTELLNDVAGALALDDKLGRSTNQLSGGEWQRVRLAAVVLQITPQANPAGQLLLLDEPMNSLDVAQQSALDKILSALCQQGLAIVMSSHDLNHTLRHAHRAWLLKGGKMLASGRREEVLTPPNLAQAYGMNFRRLDIEGHRMLISTI	4.65 ± 0.84	2.32 ± 0.27	3.72	2.37 ± 0.03	2.13 ± 0.1	3.49 ± 0.41	4.65		4.37	6.509 ± 0.027	2.59	3.11 ± 0.33
MSKAGASLATCYGPVSADVIAKAENIRLLILDVDGVLSDGLIYMGNNGEELKAFNVRDGYGIRCALTSDIEVAIITGRKAKLVEDRCATLGITHLYQGQSNKLIAFSDLLEKLAIAPENVAYVGDDLIDWPVMEKVGLSVAVADAHPLLIPRADYVTRIAGGRGAVREVCDLLLLAQGKLDEAKGQSI [P0ABZ4]	6.03 ± 0.62	5.24 ± 0.48	4.75	4.36 ± 0.21		4.33 ± 1.4	11.2 ± 2	7.52 ± 0.99	6.58	13.2 ± 0.32	4.98 ± 0.53	4.81
MSKCSADETPVCCCMDVGTIMDNSDCTASYSRVFANRAEAEQTLAALTEKARSVESEPCKITPTFTEESDGVRLDIDFTFACEAEMLIFQLGLR [P0AD33]	5.299 ± 0.023		2.32 ± 0.13	2.37 ± 0.099	2.3 ± 0.11	4.14 ± 0.23	8.27 ± 4.1	3.61 ± 0.46	5.25 ± 0.11	8.88 ± 0.45	2.77 ± 0.89	2.09 ± 0.35
